This passage reports Peptide exchange results from US10738094B2, “Peptides and combination of peptides for use in immunotherapy against ovarian cancer and other cancers” (immatics biotechnologies GmbH, priority 2015, dated 2020).

This assay addresses HLA-A*02:01 (Homo sapiens, UniProt P04439, D140Y/D185E/D98H/E176V/E277Q/G131W/G231S/I119V/I121R/I166T/I218V/L300P/L318F/N151K/N90K/P208A/P217A/Q86G/Q94H/R138H/R169H/T345S). Description: MHC binding assay (UV-ligand exchange, beta2m ELISA). As to conditions: binding to HLA-A*02:01 ranged by peptide exchange yield (UV-ligand exchange, β2m ELISA). In outline: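 UV-cleavable ligand in peptide-MHC complexes was exchanged for test peptide. Exchange yield came from an ELISA on streptavidin-captured complexes diluted 100 fold, detecting β2m with HRP anti-β2m (2 ug/ml, 1 h, 37° C.), TMB, A450.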
A general note: ELISA stands for enzyme-linked immunosorbent assay.
For the substance “148 (ALNPEIVSV; listed as Homo sapiens) [compound 148]”, the Peptide exchange entry was ““++” (≥20% = ++)”.

Turning to “604 (SILDRDDIFV; listed as Homo sapiens) [compound 604]”, the Peptide exchange entry is recorded as ““+++” (≥50 = +++)”.

In the case of “545 (LLADLLHNV; listed as Homo sapiens) [compound 545]”, the Peptide exchange entry is reported as ““+++” (≥50 = +++)”.

As to “102 (YLFESEGLVL; listed as Homo sapiens) [compound 102]”, the Peptide exchange result is on record as ““+++” (≥50 = +++)”.

Take “446 (QLIPALAKV; listed as Homo sapiens) [compound 446]”: the Peptide exchange result is ““+++” (≥50 = +++)”.

Consider “375 (SLTETIEGV; listed as Homo sapiens) [compound 375]”, for which the Peptide exchange result is recorded as ““++” (≥20% = ++)”.

“155 (RVANLHFPSV; listed as Homo sapiens) [compound 155]”: the Peptide exchange entry is recorded as ““+++” (≥50 = +++)”.

In the case of “154 (ALDDGTPAL; listed as Homo sapiens) [compound 154]”, the Peptide exchange result is ““++” (≥20% = ++)”.

As for “238 (YLISFQTHI; listed as Homo sapiens) [compound 238]”, the Peptide exchange result was ““+++” (≥50 = +++)”.

In the case of “13 (YLMDESLNL; listed as Homo sapiens) [compound 13]”, the Peptide exchange entry is listed as ““+++” (≥50 = +++)”.

On to “16 (VLFQGQASL; listed as Homo sapiens) [compound 16]”, for which the Peptide exchange result is given as ““+++” (≥50 = +++)”.

As for “450 (FMIDASVHPTL; listed as Homo sapiens) [compound 450]”, the Peptide exchange result was ““+++” (≥50 = +++)”.

On to “344 (YLQDQHLLLTV; listed as Homo sapiens) [compound 344]”, for which the Peptide exchange entry was ““+++” (≥50 = +++)”.

Take “432 (TLIEESAKV; listed as Homo sapiens) [compound 432]”: the Peptide exchange result is reported as ““++” (≥20% = ++)”.

On to “192 (KMLDGASFTL; listed as Homo sapiens) [compound 192]”, for which the Peptide exchange result is reported as ““+++” (≥50 = +++)”.

With “456 (LLIGHLERV; listed as Homo sapiens) [compound 456]”, the Peptide exchange result is on record as ““+++” (≥50 = +++)”.

For the substance “283 (ALYIGDGYVIHLA; listed as Homo sapiens) [compound 283]”, the Peptide exchange entry is listed as ““+++” (≥50 = +++)”.

For the substance “188 (GLFPVTPEAV; listed as Homo sapiens) [compound 188]”, the Peptide exchange entry is on record as ““+++” (≥50 = +++)”.

As for “583 (ILANDGVLLAA; listed as Homo sapiens) [compound 583]”, the Peptide exchange result is ““+++” (≥50 = +++)”.

For “381 (FIDEAYVEV; listed as Homo sapiens) [compound 381]”, the Peptide exchange result is on record as ““++” (≥20% = ++)”.

On to “73 (NIFDLQIYV; listed as Homo sapiens) [compound 73]”, for which the Peptide exchange result is reported as ““+++” (≥50 = +++)”.

For the substance “117 (ILPDGEDFLAV; listed as Homo sapiens) [compound 117]”, the Peptide exchange result was ““+++” (≥50 = +++)”.

For the substance “479 (SLFGNSGILENV; listed as Homo sapiens) [compound 479]”, the Peptide exchange result was ““+++” (≥50 = +++)”.

As to “93 (LLQAIKLYL; listed as Homo sapiens) [compound 93]”, the Peptide exchange result is reported as ““++” (≥20% = ++)”.

With “427 (ALLPLSPYL; listed as Homo sapiens) [compound 427]”, the Peptide exchange entry is reported as ““+++” (≥50 = +++)”.

With “591 (SMAELDIKL; listed as Homo sapiens) [compound 591]”, the Peptide exchange result is on record as ““+++” (≥50 = +++)”.

Regarding “85 (KMSELRVTL; listed as Homo sapiens) [compound 85]”, the Peptide exchange result is ““+++” (≥50 = +++)”.

Turning to “370 (SLLQDLVSV; listed as Homo sapiens) [compound 370]”, the Peptide exchange entry was ““+++” (≥50 = +++)”.

For the substance “593 (GLPRFGIEMV; listed as Homo sapiens) [compound 593]”, the Peptide exchange result is recorded as ““+++” (≥50 = +++)”.

On to “371 (FLQAHLHTA; listed as Homo sapiens) [compound 371]”, for which the Peptide exchange entry is given as ““++++” (≥75% = ++++)”.

Consider “228 (AMQEYIAVV; listed as Homo sapiens) [compound 228]”, for which the Peptide exchange result is ““++” (≥20% = ++)”.

Turning to “488 (FLAEDPKVTL; listed as Homo sapiens) [compound 488]”, the Peptide exchange result was ““+++” (≥50 = +++)”.

Take “342 (HIYDKVMTV; listed as Homo sapiens) [compound 342]”: the Peptide exchange result is reported as ““+++” (≥50 = +++)”.

“204 (KIAENVEEV; listed as Homo sapiens) [compound 204]”: the Peptide exchange entry is recorded as ““++” (≥20% = ++)”.

For “477 (ALLPASGQIAL; listed as Homo sapiens) [compound 477]”, the Peptide exchange entry was ““+++” (≥50 = +++)”.

For the substance “198 (KTINKVPTV; listed as Homo sapiens) [compound 198]”, the Peptide exchange result was ““+++” (≥50 = +++)”.

For the substance “434 (KVSNSGITRV; listed as Homo sapiens) [compound 434]”, the Peptide exchange entry is given as ““++” (≥20% = ++)”.

As for “474 (YLDPALELGPRNV; listed as Homo sapiens) [compound 474]”, the Peptide exchange result is ““+++” (≥50 = +++)”.

Consider “42 (VLLQKIVSA; listed as Homo sapiens) [compound 42]”, for which the Peptide exchange entry is reported as ““+++” (≥50 = +++)”.

With “136 (YLADPSNLFVV; listed as Homo sapiens) [compound 136]”, the Peptide exchange entry is given as ““+++” (≥50 = +++)”.

Consider “451 (LLLLDTVTMQV; listed as Homo sapiens) [compound 451]”, for which the Peptide exchange result is reported as ““++” (≥20% = ++)”.

“111 (YVWGFYPAEV; listed as Homo sapiens) [compound 111]”: the Peptide exchange entry is given as ““+++” (≥50 = +++)”.

Regarding “126 (VLAYFLPEA; listed as Homo sapiens) [compound 126]”, the Peptide exchange entry is given as ““++++” (≥75% = ++++)”.

For “253 (GLDAATATV; listed as Homo sapiens) [compound 253]”, the Peptide exchange result was ““++” (≥20% = ++)”.

As for “223 (ALLENIALYL; listed as Homo sapiens) [compound 223]”, the Peptide exchange entry is ““+++” (≥50 = +++)”.

As to “495 (FIFSEKPVFV; listed as Homo sapiens) [compound 495]”, the Peptide exchange result is ““+++” (≥50 = +++)”.

“395 (ALALGGIAVV; listed as Homo sapiens) [compound 395]”: the Peptide exchange entry is given as ““++++” (≥75% = ++++)”.

On to “163 (ALDEMGDLLQL; listed as Homo sapiens) [compound 163]”, for which the Peptide exchange result is reported as ““+++” (≥50 = +++)”.

On to “518 (KLNAEVACV; listed as Homo sapiens) [compound 518]”, for which the Peptide exchange entry is listed as ““+++” (≥50 = +++)”.

As for “287 (FLNEFFLNV; listed as Homo sapiens) [compound 287]”, the Peptide exchange entry is on record as ““+++” (≥50 = +++)”.

“173 (LLDSASAGLYL; listed as Homo sapiens) [compound 173]”: the Peptide exchange result is ““+++” (≥50 = +++)”.

As for “201 (RLVDYLEGI; listed as Homo sapiens) [compound 201]”, the Peptide exchange result is recorded as ““+++” (≥50 = +++)”.

Turning to “106 (LLYDAVHIVSV; listed as Homo sapiens) [compound 106]”, the Peptide exchange result was ““+++” (≥50 = +++)”.
